# Laboratory results from doi:10.1101/2023.01.10.523494 (bioRxiv, 2023).
# Molecular target: receptor binding domain (RBD) of the wildtype (WT) SARS-CoV-2 spike protein (SARS-CoV-2, wildtype (sequence as in …))
row,Binder,binding result
1,"mRBD14 (antibody, V domains shown) VH: EVKLVESGGGLVQPGGSLSLSCAASGFTFTDYYMSWVRQPPGKALEWLGFIRNKANGYTTEYSASVKGRFTISRDNSQSILYLQMNALRAEDSATYYCARYIRTGWYFDVWGTGTTVTVSS VL: DIVMTQSQKFMSTSVRDRVSITCKASQNVRTAVAWYQQKPGQSPKALIYLASNRHTGVPDRFTGSGSGTDFTLTISNVQSEDLADYFCLQHWNYPWTFGGGTKLEIK",binds
2,"mRBD3 (antibody, V domains shown) VH: QVQLQQPGAELVMPGTSVKLSCKASGYIFTSYWMHWVKQRPGQGLEWIGEIDPSDNYTNYNQKFKGKSTLTVDKSSSTAYMQLSSLTSEDSAVYYCARGGLYYYGSSYDAMDYWGQGTSVTVSS VL: DIVMTQAAPSVPVTPGESVSISCRSSKSLLHSNGNTYLYWFLQRPGQSPQLLIYRMSNLASGVPDRFSGSGSGTAFTLRISRVEAEDVGAYYCMQHLEYPFTFGSGTKLEIK",binds
3,"mRBD4 (antibody, V domains shown) VH: QVQLQQPGAELVMPGASVKLSCKASGYTFTSYWMHWVKQRPGQGLEWIGEIDPSDSYTNYNQKFKDKSTLTVDKSSSTAYMQLSSLTSEDSAVYYCARGGVYYYGSSHYFDYWGQGTTLTVSS VL: DIVMTQAAPSVPVTPGESVSISCRSSKSLLHSNGNTYLYWFLQRPGQSPQFLIYRMSNLASGVPDRFSGSGSGTAFTLRISRVEAEDVGVYYCMQHLEYPFTFGSGTKLEIK",binds
4,"mRBD7 (antibody, V domains shown) VH: QVQLKQSGAELVRPGASVKLSCKASGYTFTDYYINWVKQRPGQGLEWIARIYPGSGNTYYNEKFKGKATLTAEKSSSTAYMQLSSLTSEDSAVYFCARYPLYDYDEEDYFDYWGQGTTLTVSS VL: DIQMTQTTSSLSASLGDRVTISCRASQDISNYLNWYQQKPDGTVKLLIYYTSRLHSGVPSRFSGSGSGTDYSLTISNLEQEDIATYFCQQGNTLPYTFGGGTKLEIK",binds
5,"mRBD12 (antibody, V domains shown) VH: QVQLQQSGAELARPGASVKLSCKASGYTFTSYGISWVKQRTGQGLEWIGEIYPRSGNTYYNEKFKGKATLTADKSSSTAYMEVRSLTSEDSAVYFCAREGGYGYVMDYWGQGTSVTVSS VL: DIQMTQTTSSLSASLGDRVTISCRASQDISNYLNWYQQKPDGTVKLLIYYTSRLHSGVPSRFSGSGSGTDYSFTISNLEQEDIATYFCQQGNTLPWTFGGGTKLEIK",binds
6,"mRBD10 (antibody, V domains shown) VH: QVQLKQSGAELVRPGASVKLSCKASGYTFTDYYINWVKQRPGQGLEWIARIYPGSGNTYYNEKFKGKATLTAEKSSSTAYMQLSSLTSEDSAVYFCARDYGSSYVDYFDYWGQGTTLTVSS VL: DIQMTQTTSSLSASLGDRVTISCRASQDISNYLNWYQQKPDGTVKLLIYYTSRLHSGVPSRFSGSGSGTDYSLTISNLEQEDIATYFCQQGNTLPLTFGAGTKLELK",binds
7,"mRBD17 (antibody, V domains shown) VH: QIQLVQSGPELKKPGETVKISCKASGYTLTEYPMHWVKQAPGKGFKWMGMIYTDTGEPTYAEEFKGRFAFSLETSASTAYLQINNLKNEDTATYFCVRAGPSFAMDYWGQGTSVTVSS VL: DIQMTQTTSSLSASLGDRVTISCRASQDISNYLNWYQQKPDGTVKLLIYYTSRLHSGVPSRFSGSGSGTDYSLTISNLEQEDFATYFCQQGNTLPYTFGGGTKLEIK",binds
8,"mRBD18 (antibody, V domains shown) VH: QIQLVQSGPELKKPGETVKISCKASGYTFTDYPMHWVQQAPGKGFKWMGMIYTDTGEPTYAEEFKGRFAFSLETSASTAYLQINNLKNEDTATYFCVRWAGYFDYWGQGTTLTVSS VL: DIVLTQSPASLAVSLGQRATISCRASESVDSYGNSFMDWYQQKPGQPPKLLIYRASNLESGIPARFSGSGSRTDFTLIINPVEADDVATYYCQQSNEHPLTFGAGTKLELK",binds
9,"mRBD5 (antibody, V domains shown) VH: QVQLQQPGAELVKPGASVKVSCKASGYTFTSYWMHWVKQRPGQGLEWIGRIHPSDSDTNYNQKFKGKATLTVDKSSSTAYMQLSSLTSEDSAVYYCAIDWDGDYWGQGTTLTVSS VL: DIVMSQSPSSLAVSAGEKVTMSCKSSQSLLNSRTRKNYLAWYQQKPGQSPKLLIYWASTRESGVPDRFTGSGSGTDFTLTISSVQAEDLAVYYCKQSYNLWTFGGGTKLEIK",binds
10,"mRBD6 (antibody, V domains shown) VH: QVQLQQPGAELVKPGASVKVSCKASGYTFTSYWMHWVKQRPGQGLEWIGRIHPSDSDTNYNQKFKGKATLTVDKSSSTAYMQLSSLTSEDSAVYYCAMDWDVDYWGQGTTLTVSS VL: DIVMSQSPSSLAVSAGEKVTMSCKSSQSLLNSRTRKNYLAWYQQKPGQSPKLLIYWASTRESGVPDRFTGSGSGTDFTLTISSVQAEDLAVYYCKQSYNLLTFGAGTKLELK",binds
11,"mRBD11 (antibody, V domains shown) VH: QVQLQQSGAELARPGASVKLSCKASGYTFISNGISWVKQRTGQGLEWIGEIYPRNGNTYYNEKFKGKATLTADKSSSTAYMELRSLTSEDSAVFFCARDYYYGNFDYWGQGTTLTVSS VL: NIVLTQSPASLAVSLGQRATISCRASESVDSYGNSFMHWYQQKPGQPPKLLIYLASNLESGVPARFSGSGSRTDFTLTIDPVEADDAATYYCQQNNEDPYTFGGGTKLEIK",binds
12,"mRBD20 (antibody, V domains shown) VH: QIQLVQSGPELKKPGETVKISCKASGYTLTEYPMHWVKQAPGKGFKWMGMIYTDTGEPTYAEEFKGRFAFSLETSASTAYLQINNLKNEDTATYFCVRAGPSYAMDYWGQGTSVTVSS VL: NIVLTQSPASLAMSLGQRATISCRASESVDSYGNSFMHWYQLKPGQPPKLLIYLASNLESGVPARFSGSGSRTDFTLTIDPVEADDAATYYCQQNNEDPYTFGGGTKLEIK",binds
13,"mRBD15 (antibody, V domains shown) VH: QIQLVQSGPDLKKPGETVKISCKASGYTFTEYPMHWVKQAPGKGFQWMGMIYTDTGEPTYAEEFKGRFAFSLETSASTAYLQINNLKNEDTSTYFCVRAGPSYAMDYWGQGTSVTVSS VL: NIVLTQSPASLAVSLGQRATISCRASESVDSYGNSFMHWYQQKPGQPPKLLIYLASNVESGVPARFSGSGSRTDFTLTIDPVEADDAATYYCHQINEDPYTFGGGTKLEIK",binds
14,"mRBD19 (antibody, V domains shown) VH: QIQLVQSGPELKKPGETVKISCKASGYTFTEYPMHWVKQAPGKGFKWMGMIYTDTGEPTYAEEFKGRFAFSLETSASTAYLQINNLKNEDTATYFCVRGGPYYAMDYWGQGTSVTVSS VL: NIVLTQSPASLAVSLGQRATISCRASESVDSYGNSFMHWYQQKPGQPPKLLIYLASNLESGVPARFSGSGSRTDFTLTIDPVEADDAATYYCQQNNEDPWTFGGGTKLEIK",binds
15,"mRBD16 (antibody, V domains shown) VH: QIQLVQSGPELKKPGETVKISCKASGYTLTEYPMHWVKQAPGKGFKWMGMIYTDTGEPTYAEEFKGRFAFSLETSASTAYLQINNLKNEDTATYFCVRAGPSFAMDYWGQGTSVTVSS VL: NIVLTQSPASLAVSLGQRATISCRASESVDSYGNSFMHWYQQKPGQPPKLLIYLASNLESGVPARFSGSGSRTDFTLTIDPVEADDAATYYCQQNNEDPYTFGGGTKLEIK",binds
